# Reference: article PMC10018359, “Allosteric effects of E. coli SSB and RecR proteins on RecO protein binding to DNA” (Nucleic Acids Research, 2023)
# T1: RecO;RecR (Escherichia coli;Escherichia coli, UniProt P0A7H3;P0A7H6 1-242;1-201, |)
# T1 sequence 1: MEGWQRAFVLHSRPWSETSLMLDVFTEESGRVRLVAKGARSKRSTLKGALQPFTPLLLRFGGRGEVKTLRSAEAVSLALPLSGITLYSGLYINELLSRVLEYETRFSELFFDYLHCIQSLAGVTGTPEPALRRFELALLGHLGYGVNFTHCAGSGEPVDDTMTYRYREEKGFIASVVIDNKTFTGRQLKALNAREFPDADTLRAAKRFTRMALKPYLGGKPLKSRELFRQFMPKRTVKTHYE
# T1 sequence 2: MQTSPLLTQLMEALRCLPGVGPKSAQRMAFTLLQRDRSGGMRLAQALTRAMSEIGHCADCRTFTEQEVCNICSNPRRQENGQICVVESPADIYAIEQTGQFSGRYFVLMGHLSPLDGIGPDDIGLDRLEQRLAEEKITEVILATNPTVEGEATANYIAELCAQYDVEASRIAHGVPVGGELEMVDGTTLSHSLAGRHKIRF
# T2: RecO (Escherichia coli, UniProt P0A7H3 1-242)
# T2 sequence: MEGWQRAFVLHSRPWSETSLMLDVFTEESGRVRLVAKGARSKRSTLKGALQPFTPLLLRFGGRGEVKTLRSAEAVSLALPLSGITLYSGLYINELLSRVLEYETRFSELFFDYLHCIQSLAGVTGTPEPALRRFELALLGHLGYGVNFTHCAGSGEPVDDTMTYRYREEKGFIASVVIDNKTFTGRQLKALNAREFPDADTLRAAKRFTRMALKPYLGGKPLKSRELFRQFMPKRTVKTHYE
# B1: SSB-Ct peptide, composed of the 15 C-terminal amino acids of E. coli SSB (peptide)
# peptide: PSNEPPMDFDDDIPF
# notes: source: bought: WatsonBio (Houston, TX)
# B2: Escherichia coli RecR protein (natural protein, E. coli, UniProt P0A7H6 1-201, looked up)
# chain: MQTSPLLTQLMEALRCLPGVGPKSAQRMAFTLLQRDRSGGMRLAQALTRAMSEIGHCADCRTFTEQEVCNICSNPRRQENGQICVVESPADIYAIEQTGQFSGRYFVLMGHLSPLDGIGPDDIGLDRLEQRLAEEKITEVILATNPTVEGEATANYIAELCAQYDVEASRIAHGVPVGGELEMVDGTTLSHSLAGRHKIRF
# notes: RecR, recombination mediator protein, E. coli; in the complex with RecO found here it is a tetramer (RecR4O); also called E. coli RecR; source: E. coli BL21 Rosetta 2(DE3)pLysS, plasmid pMCSG7, purified (Ni-NTA), His-tag cleaved with TEV protease
# B3: Escherichia coli RecO protein (natural protein, E. coli, UniProt P0A7H3 1-242, looked up)
# chain: MEGWQRAFVLHSRPWSETSLMLDVFTEESGRVRLVAKGARSKRSTLKGALQPFTPLLLRFGGRGEVKTLRSAEAVSLALPLSGITLYSGLYINELLSRVLEYETRFSELFFDYLHCIQSLAGVTGTPEPALRRFELALLGHLGYGVNFTHCAGSGEPVDDTMTYRYREEKGFIASVVIDNKTFTGRQLKALNAREFPDADTLRAAKRFTRMALKPYLGGKPLKSRELFRQFMPKRTVKTHYE
# notes: RecO, recombination mediator protein of the RecF pathway, E. coli; also called E. coli RecO; source: E. coli BL21(DE3) pLysS, plasmid pMCSG7, purified (Ni-NTA, HiTrap Heparin HP) after His-tag cleavage with TEV protease
# B4: Cy3-(dT)68 (ssDNA)
# DNA: TTTTTTTTTTTTTTTTTTTTTTTTTTTTTTTTTTTTTTTTTTTTTTTTTTTTTTTTTTTTTTTTTTTT
# B5: Cy3-(dT)140 (ssDNA)
# DNA: TTTTTTTTTTTTTTTTTTTTTTTTTTTTTTTTTTTTTTTTTTTTTTTTTTTTTTTTTTTTTTTTTTTTTTTTTTTTTTTTTTTTTTTTTTTTTTTTTTTTTTTTTTTTTTTTTTTTTTTTTTTTTTTTTTTTTTTTTTTT
# B6: Cy3-(dT)15 (ssDNA)
# DNA: TTTTTTTTTTTTTTT
# B7: Cy3-(dT)35 (ssDNA)
# DNA: TTTTTTTTTTTTTTTTTTTTTTTTTTTTTTTTTTT
# B8: (dT)70 (ssDNA)
# DNA: TTTTTTTTTTTTTTTTTTTTTTTTTTTTTTTTTTTTTTTTTTTTTTTTTTTTTTTTTTTTTTTTTTTTTT
# Experiments:
# [1] = target: SSB-Ct peptide C-terminal tail (Escherichia coli) (UniProt P0AGE0); experiment: given as Ka; details: cited from earlier work
# Sequence of SSB-Ct peptide C-terminal tail (Escherichia coli) (P0AGE0 whole entry, looked up): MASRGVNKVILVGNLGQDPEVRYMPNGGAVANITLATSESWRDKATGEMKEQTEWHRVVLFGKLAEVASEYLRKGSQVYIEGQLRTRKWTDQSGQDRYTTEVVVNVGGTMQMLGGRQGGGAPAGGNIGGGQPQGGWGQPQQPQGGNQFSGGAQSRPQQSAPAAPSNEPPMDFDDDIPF
# [2] = target: B3; experiment: AUC; sedimentation equilibrium, 18 000, 23 000 and 28 000 rpm, 25°C, buffer BTP (pH 8.0, 50 mM NaCl, 25% glycerol, 1 mM TCEP); RecO 2.24 uM, SSB-Ct 13.4 uM, Cy3-(dT)15 or Cy3-(dT)35 0.56 uM; absorbance of the Cy3-DNA at 546 nm; one-species fit; details: both partners purified
# [3] = target: the molecule itself; experiment: AUC; sedimentation equilibrium, 18 000, 23 000 and 28 000 rpm, 25°C, buffer BTP; RecO 2.24 uM, RecR 8.96 uM, SSB-Ct 13.4 uM, Cy3-(dT)15 0.56 uM; absorbance of the Cy3-DNA at 546 nm; one-species fit
# [4] = target: B3; experiment: AUC; sedimentation velocity, 42,000 rpm, 25°C, buffer BTP; RecO 2.24 uM, RecR 8.96 uM, Cy3-(dT)L (L = 15, 35, 68, 140) 0.56 uM, in the absence and presence of SSB-Ct 13.4 uM; absorbance of the Cy3-DNA at 546 nm; c(s) distributions; details: both partners purified
# [5] = target: B2; experiment: AUC; sedimentation equilibrium, 18 000, 23 000 and 28 000 rpm, 25°C, buffer BTP; RecO 2.24 uM, RecR 8.96 uM, SSB-Ct 13.4 uM, Cy3-(dT)15 0.56 uM; absorbance of the Cy3-DNA at 546 nm; one-species fit; details: both partners purified
# [6] = target: T1, RecO;RecR; experiment: AUC sedimentation velocity; no SSB-Ct; 6.3 S; Buffer BTP: 20 mM Bis-Tris propane pH 8.0, 50 mM NaCl, 25% (v/v) glycerol, 1 mM TCEP, 25 C; details: protein: recombinant;recombinant; tags: His-tag cleaved with TEV (pMCSG7);His-tag cleaved with TEV (pMCSG7); label: 3'-Cy3
# [7] = target: T3, RecO;SSB-Ct peptide (P15) (Escherichia coli;Escherichia coli, UniProt P0A7H3;P0AGE0 1-242;, |); experiment: AUC sedimentation velocity; 13.4 uM SSB-Ct; 1.9 S; Buffer BTP: 20 mM Bis-Tris propane pH 8.0, 50 mM NaCl, 25% (v/v) glycerol, 1 mM TCEP, 25 C; details: tags: His-tag cleaved with TEV (pMCSG7);; copies: 1;1; label: 3'-Cy3
# [8] = target: T4, RecO;RecR;SSB-Ct peptide (P15) (Escherichia coli;Escherichia …, UniProt P0A7H3;P0A7H6;P0AGE0 1-242;1-201;, ||); experiment: AUC sedimentation velocity; 13.4 uM SSB-Ct; 4.7 S; Buffer BTP: 20 mM Bis-Tris propane pH 8.0, 50 mM NaCl, 25% (v/v) glycerol, 1 mM TCEP, 25 C; details: tags: His-tag cleaved with TEV (pMCSG7);His-tag cleaved with TEV (pMCSG7);; label: 3'-Cy3
# [9] = target: T4, RecO;RecR;SSB-Ct peptide (P15); experiment: AUC sedimentation velocity; 13.4 uM SSB-Ct; 4.8 S; Buffer BTP: 20 mM Bis-Tris propane pH 8.0, 50 mM NaCl, 25% (v/v) glycerol, 1 mM TCEP, 25 C; details: tags: His-tag cleaved with TEV (pMCSG7);His-tag cleaved with TEV (pMCSG7);; label: 3'-Cy3
# [10] = target: T3, RecO;SSB-Ct peptide (P15); experiment: AUC sedimentation velocity; 13.4 uM SSB-Ct; 2.1 S; Buffer BTP: 20 mM Bis-Tris propane pH 8.0, 50 mM NaCl, 25% (v/v) glycerol, 1 mM TCEP, 25 C; details: tags: His-tag cleaved with TEV (pMCSG7);; copies: 1;1; label: 3'-Cy3
# [11] = target: T1, RecO;RecR; experiment: AUC sedimentation velocity; no SSB-Ct; 5.7 S; Buffer BTP: 20 mM Bis-Tris propane pH 8.0, 50 mM NaCl, 25% (v/v) glycerol, 1 mM TCEP, 25 C; details: protein: recombinant;recombinant; tags: His-tag cleaved with TEV (pMCSG7);His-tag cleaved with TEV (pMCSG7); label: 3'-Cy3
# [12] = target: T3, RecO;SSB-Ct peptide (P15); experiment: AUC sedimentation velocity and equilibrium; 13.4 uM SSB-Ct; 0.7 S; 31.8 kDa, 1 RecO per DNA; Buffer BTP: 20 mM Bis-Tris propane pH 8.0, 50 mM NaCl, 25% (v/v) glycerol, 1 mM TCEP, 25 C; details: tags: His-tag cleaved with TEV (pMCSG7);; copies: 1;1; label: 3'-Cy3
# [13] = target: T4, RecO;RecR;SSB-Ct peptide (P15); experiment: AUC sedimentation velocity and equilibrium; 13.4 uM SSB-Ct; 2.6 S; 131.1 kDa, RecR4O with one DNA; Buffer BTP: 20 mM Bis-Tris propane pH 8.0, 50 mM NaCl, 25% (v/v) glycerol, 1 mM TCEP, 25 C; details: tags: His-tag cleaved with TEV (pMCSG7);His-tag cleaved with TEV (pMCSG7);; label: 3'-Cy3
# [14] = target: T1, RecO;RecR; experiment: AUC sedimentation velocity; no SSB-Ct; 2.9 S; Buffer BTP: 20 mM Bis-Tris propane pH 8.0, 50 mM NaCl, 25% (v/v) glycerol, 1 mM TCEP, 25 C; details: protein: recombinant;recombinant; tags: His-tag cleaved with TEV (pMCSG7);His-tag cleaved with TEV (pMCSG7); label: 3'-Cy3
# [15] = target: T1, RecO;RecR; experiment: AUC sedimentation velocity; no SSB-Ct; 5.4 S; Buffer BTP: 20 mM Bis-Tris propane pH 8.0, 50 mM NaCl, 25% (v/v) glycerol, 1 mM TCEP, 25 C; details: protein: recombinant;recombinant; tags: His-tag cleaved with TEV (pMCSG7);His-tag cleaved with TEV (pMCSG7); label: 3'-Cy3
# [16] = target: T3, RecO;SSB-Ct peptide (P15); experiment: AUC sedimentation velocity and equilibrium; 13.4 uM SSB-Ct; 1.2 S; 70.1 kDa, 2 RecO per DNA; Buffer BTP: 20 mM Bis-Tris propane pH 8.0, 50 mM NaCl, 25% (v/v) glycerol, 1 mM TCEP, 25 C; details: tags: His-tag cleaved with TEV (pMCSG7);; copies: 1;1; label: 3'-Cy3
# [17] = target: T4, RecO;RecR;SSB-Ct peptide (P15); experiment: AUC sedimentation velocity; 13.4 uM SSB-Ct; 3.8 S; Buffer BTP: 20 mM Bis-Tris propane pH 8.0, 50 mM NaCl, 25% (v/v) glycerol, 1 mM TCEP, 25 C; details: tags: His-tag cleaved with TEV (pMCSG7);His-tag cleaved with TEV (pMCSG7);; label: 3'-Cy3
# [18] = target: T2, RecO; experiment: light scattering; no SSB-Ct; onset at RecO/DNA 6; Buffer BTP: 20 mM Bis-Tris propane pH 8.0, 50 mM NaCl, 25% (v/v) glycerol, 1 mM TCEP, 25 C; details: protein: recombinant; tags: His-tag cleaved with TEV (pMCSG7)
molecule,measurement,setting,value
RecO (from UniProt P0A7H3),Kd,[1],83.3 nM
B1,binding result,[2],binds
B2,stoichiometry N,[3],4
same,binding result,[4],binds
B3,stoichiometry N,[5],1 RecO per RecR tetramer
B4,binding result,[6],binds
same,binding result,[7],binds
same,binding result,[8],binds
B5,binding result,[9],binds
same,binding result,[10],binds
same,binding result,[11],binds
B6,binding result,[12],binds
same,binding result,[13],binds
same,binding result,[14],binds
B7,binding result,[15],binds
same,binding result,[16],binds
same,binding result,[17],binds
B8,binding result,[18],binds
